Results published in publication PMC10138348, “Continuous Fluorescent Sirtuin Activity Assay Based on Fatty Acylated Lysines” (International Journal of Molecular Sciences, 2023).

Molecular target: F4, TNFα-derived peptide with a myristoylated lysine and fluorescein-labelled cysteine in the +2 position
Experiment: fluorescence polarisation; SIRT2 in serial dilution from 1.6 µM, F4 10 nM, no NAD+, BSA from zero to 300 µM; 384-well plate, 20 mM Tris-HCl pH 7.8, 150 mM NaCl, 5 mM MgCl2; three independent replicates

- Kd: 0.007 to 0.018 µM
B1: SIRT2 (enzyme)
chain: MAEPDPSHPLETQAGKVQEAQDSDSDSEGGAAGGEADMDFLRNLFSQTLSLGSQKERLLDELTLEGVARYMQSERCRRVICLVGAGISTSAGIPDFRSPSTGLYDNLEKYHLPYPEAIFEISYFKKHPEPFFALAKELYPGQFKPTICHYFMRLLKDKGLLLRCYTQNIDTLERIAGLEQEDLVEAHGTFYTSHCVSASCRHEYPLSWMKEKIFSEVTPKCEDCQSLVKPDIVFFGESLPARFFSCMQSDFLKVDLLLVMGTSLQVQPFASLISKAPLSTPRLLINKEKAGQSDPFLGMIMGLGGGMDFDSKKAYRDVAWLGECDQGCLALAELLGWKKELEDLVRREHASIDAQSGAGVPNPSTSASPKKSPPPAKDEARTTEREKPQ
